Earlier results on one substance are cited in publication PMC4188523.

One data set addresses Asp52 (UniProt position 70, TDGSTDYGILQ). Description: NMR (according to the title of cited reference 36; not described in this article).
Another data set addresses Glu35 (UniProt position 53, CAAKFESNFNT). Described as above.

Regarding “Hen egg white lysozyme (HEWL, lysozyme C) (Gallus gallus)”, the pKa result in the data set with Asp52 is listed as “∼3.6”; in the data set with Glu35 it was “∼6.2”.
